{"source": "paper PMC3017672", "about": "(Journal of molecular biology, 2010)", "biological_target": "the molecule itself", "test": "cryo-EM structure"}
{"protein": "bacteriophage 80α capsid protein gp47 (natural protein, Staphylococcus aureus bacteriophage 80α, UniProt A4ZFB3 15-324, looked up) ASNNVKPQVFNPDNVMMHEKKDGTLMNEFTTPILQEVMENSKIMQLGKYEPMEGTEKKFTFWADKPGAYWVGEGQKIETSKATWVNATMRAFKLGVILPVTKEFLNYTYSQFFEEMKPMIAEAFYKKFDEAGILNQGNNPFGKSIAQSIEKTNKVIKGDFTQDNIIDLEALLEDDELEANAFISKTQNRSLLRKIVDPETKERIYDRNSDSLDGLPVVNLKSSNLKRGELITGDFDKLIYGIPQLIEYKIDETAQLSTVKNEDGTPVNLFEQDMVALRATMHVALHIADDKAFAKLVPADKRTDSVPGEV", "values": [{"measurement": "stoichiometry N", "result": 420, "unit": "copies"}]}
